Test results as given in patent publication US20030134779A1, “Method and composition for treatment and/or prevention of antibiotic-resistant microorganism infections” (priority 2002, published 2003).

How the values were obtained:
S. aureus ATCC 25923 [1] = assay: Checkerboard MICs and FIC index, penicillin with bovine LF; format: cell-based, Staphylococcus aureus
Method: (§1) The MICs were determined by both macrodilution (1 ml/tube) and microdilution (100 μl/well) in sterile 96 well microtiter plates (International Nunc, Napierville, Ill.) techniques in three separate experiments according to the National Committee for Clinical Laboratory Standards (1992 and 1999) in three separate experiments. Serial 2-fold dilutions in MHB of LF, LFC, antibiotic or combination of LF or LFC with antibiotic were inoculated with an overnight culture at a final inoculum of 10^6 cfu/ml in MHB. Effect of LF combination with antibiotic on MICs were determined by adding 0.5 mg or 1 mg/ml of LF to each antibiotic dilution. The MIC was defined as the lowest concentration of drug (highest dilution) that caused a complete inhibition of bacterial growth after an incubation of 18 h. Effect of LF or LFC combination with antibiotic on MIC was also determined by checkerboard method using 96 well microtiter plates. Each antibiotic dilution (50 μl) was serially added to the wells in vertical rows starting from the top (lower dilution) to the bottom. Lactoferrin or LFC (50 μl) were added to 50 μl of each antibiotic dilution and serially diluted starting at the left (lower dilution) to the right. After inoculation, the final concentration of antibiotic from top to bottom were 32 to 8, 2 to 0.5, 0.5 to 0.125 μg/ml for penicillin, cefazolin and neomycin, respectively. From left to right, the concentration of LF or LFC were 25 to 0.0244 mg/ml or 256 to 0.5 μg/ml respectively in a final volume of 100 μl/well. The microplate's were incubated at 37° C. for 24 h. Bacterial growth was measured optically at 540 nm using Spectra Max 250 Microplate Spectrophotometer System of Molecular Device (Fisher Scientific, Ottawa, Canada). Tubes were incubated at 37° C. for 18 h and bacterial growth was measured by visual examination and optically at 540 nm using a spectrophotometer (Philips PU 8800; Pye Unican Ltd, Cambridge, UK). The fractional inhibitory concentration (FIC) was calculated as described by Eliopoulos and Moellering (1991).
(§2) FIC antibiotic A=MICantibiotic A (in the presence of antibiotic B)/MICantibiotic A alone. FIC Index=FICantibiotic A+FICantibiotic B
(§3) The effects of the antibiotics were considered to be synergistic or indifferent when FIC Index was<1 or>1, respectively.

S. aureus PC-1 = assay: as above; format: cell-based, Staphylococcus aureus
Method: as §1, §2, §3

S. aureus SHY97-4320 = assay: as above; format: cell-based, Staphylococcus aureus
Method: as §1, §2, §3

S. aureus ATCC 25923 [2] = assay: Cell morphology by transmission electron microscopy; format: cell-based, Staphylococcus aureus; conditions: LF 9.1 μg/ml alone; 18-h
Method: Bacterial cells were grown overnight on MHA or MHB containing sub-MICs of penicillin G with or without LF or LFC. Microorganisms were prepared for transmission electron microscopy by fixation with glutaraldehyde followed by ferritin labelling. This method allows good- preservation of capsular material. Briefly, bacterial cells grown in the presence or absence of antibiotics were fixed in cacodylate buffer (0.1 M, pH 7.0) containing 5% (v/v) glutaraldehyde, for 2 h at 20° C. Fixed microorganims were suspended in cacodylate buffer and allowed to react with the polycationic ferritin (Sigma Chemicals, St-Louis, Mo.; final concentration 1.0 mg/ml) for 30 min at 20° C. The reaction was slowed down by 10-fold dilution with buffer, and the microorganisms were centrifuged and washed three times in cacodylate buffer. Bacterial cells were then immobilized in 4% (w/v) agar, washed 5 times in cacodylate buffer and post-fixed with 2% (w/v) osmium tetroxide for 2 h. Washings were repeated as above, and the samples dehydrated in a graded series of acetone washes. Samples were then washed twice in propylene oxide and embedded in Spurr low-viscosity resin. Thin sections were post-stained with uranyl acetate and lead citrate and examined with an electron microscope (Philips 201) at an accelerating voltage of 60 kV.

[3] = system: β-lactamase activity of S. aureus PC-1; assay: β-lactamase activity, nitrocefin assay, bovine LF/LFC; format: cell-based; conditions: LF 1 mg/ml (P<0.05); LFC 32 or 64 μg/ml (P<0.001)
Chain of β-lactamase activity of S. aureus PC-1 (P00807 25-281): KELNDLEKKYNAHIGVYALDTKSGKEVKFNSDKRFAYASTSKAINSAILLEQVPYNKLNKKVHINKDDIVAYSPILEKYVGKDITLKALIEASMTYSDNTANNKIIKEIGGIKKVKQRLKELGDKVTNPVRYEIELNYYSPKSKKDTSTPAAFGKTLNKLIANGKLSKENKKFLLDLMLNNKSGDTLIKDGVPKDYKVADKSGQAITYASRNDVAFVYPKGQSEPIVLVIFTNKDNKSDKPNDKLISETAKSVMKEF
Method: (§4) The effects of sub-MICs of LF (1 mg/ml), LFC (32 and 64 μg/ml) alone or in combination with ampicillin (4μg/ml) or penicillin G (8 μg/ml) were evaluated on the β-lactamase activity of S. aureus strains SHY97-4320 and PC-1. The chromogenic cephalosporin nitrocefin (Becton Dickinson, Microbiology, Cockeysville, Md.) was used in a quantitative spectrophotometric assay. Bacterial cells were first exposed during 4 and 22-h to drugs in broth. The number of bacteria (cfu/ml) were determined and cells aliquots were centrifuged at each point in time. The pellets were suspended in 10 mM HEPES buffer (pH 7.4) to an OD415 nm of 1 for PC-1 and 2 for SHY97-4320. Nitrocefin (100 μM) was added to 100 μl of cells in a final volume of 1 ml. Hydrolysis was measured at 486 nm on spectrophotometer. β-lactamase activity was expressed as ΔO.D.486 nm/min and corrected for bacterial OD.

[4] = system: β-lactamase activity of S. aureus SHY97-4320; assay: as above; format: cell-based
Chain of β-lactamase activity of S. aureus SHY97-4320 (P00807 25-281): as above
Method: as §4

[5] = in combination with penicillin, checkerboard

B1: LF: bovine lactoferrin, 80-kDa iron-binding glycoprotein found in milk (protein, UniProt P24627 20-708, looked up)
Lactotransferrin: APRKNVRWCTISQPEWFKCRRWQWRMKKLGAPSITCVRRAFALECIRAIAEKKADAVTLDGGMVFEAGRDPYKLRPVAAEIYGTKESPQTHYYAVAVVKKGSNFQLDQLQGRKSCHTGLGRSAGWIIPMGILRPYLSWTESLEPLQGAVAKFFSASCVPCIDRQAYPNLCQLCKGEGENQCACSSREPYFGYSGAFKCLQDGAGDVAFVKETTVFENLPEKADRDQYELLCLNNSRAPVDAFKECHLAQVPSHAVVARSVDGKEDLIWKLLSKAQEKFGKNKSRSFQLFGSPPGQRDLLFKDSALGFLRIPSKVDSALYLGSRYLTTLKNLRETAEEVKARYTRVVWCAVGPEEQKKCQQWSQQSGQNVTCATASTTDDCIVLVLKGEADALNLDGGYIYTAGKCGLVPVLAENRKSSKHSSLDCVLRPTEGYLAVAVVKKANEGLTWNSLKDKKSCHTAVDRTAGWNIPMGLIVNQTGSCAFDEFFSQSCAPGADPKSRLCALCAGDDQGLDKCVPNSKEKYYGYTGAFRCLAEDVGDVAFVKNDTVWENTNGESTADWAKNLNREDFRLLCLDGTRKPVTEAQSCHLAVAPNHAVVSRSDRAAHVKQVLLHQQALFGKNGKNCPDKFCLFKSETKNLLFNDNTECLAKLGGRPTYEEYLGTEYVTAIANLKKCSTSPLLEACAFLTR
- Decrease (of MIC of LF) (S. aureus ATCC 25923 [1]; by combination with penicillin): 32 fold
- MIC LF (S. aureus ATCC 25923 [1]; [5]): 780 µg/mL
- Decrease (of MIC of LF) (S. aureus PC-1; by combination with penicillin): 64 fold
- MIC LF (S. aureus PC-1; [5]): 390 µg/mL
- Decrease (of MIC of LF) (S. aureus SHY97-4320; by combination with penicillin): 64 fold
- MIC LF (S. aureus SHY97-4320; [5]): 390 µg/mL
- cell morphology (S. aureus ATCC 25923 [2]): no obvious effect
- β-lactamase activity [3]: moderately reduces β-lactamase activity
- β-lactamase activity ([4]; LF 1 mg/ml alone): no β-lactamase activity
- β-lactamase activity ([4]; LF 1 mg/ml in combination with 8 μg/ml penicillin G, P<0.001): a significant reduction of β-lactamase activity
